The results in this text go back to CN118005785A (BEILAI PHARMACEUTICAL CO LTD, dated 2024).

Assay [1] deals with T1, Human IL-17A重组蛋白 (IL-17A-His) (human, UniProt Q16552 24-155, limits assumed, biotinylated in the ELISA of paragraph 276 (Biotin-IL-17A-His); site not stated).
T1 construct: Expressed in E. coli BL21 from pET28a and purified on a nickel column; also called IL-17A抗原蛋白; IL-17抗原
T1 sequence: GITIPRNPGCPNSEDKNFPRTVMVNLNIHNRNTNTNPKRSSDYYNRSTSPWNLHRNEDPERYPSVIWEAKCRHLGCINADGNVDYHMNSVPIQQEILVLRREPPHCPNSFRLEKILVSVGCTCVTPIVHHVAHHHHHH
The experiment in a line: ELISA, antibody coated at 2 ug/mL, Biotin-IL-17A-His titrated from 10 ug/mL, HRP-Streptavidin detection.

In assay [2] the target is T1, Human IL-17A重组蛋白 (IL-17A-His). The experiment in a line: cell-based or functional assay.
For assay [3] the target is unchanged. The experiment in a line: BLI, ForteBio OCTET R2, IL-17A-His immobilised on the sensor at 5 ug/mL, antibody 50-3.13 nM, 25℃. Background: Biolayer interferometry detects binding as a change in optical thickness at a sensor tip.

For orientation: EC50 means the concentration giving half of the maximal effect. Low readings indicate a more potent agent, high ones a less potent agent. As usually defined, the Kd is a measure of binding affinity in units of concentration. A lower Kd goes with a tighter complex.

B1: Ixekizumab (antibody, human IgG4 S228P, kappa, V domains shown)
VH: QVQLVQSGAEVKKPGSSVKVSCKASGYSFTDYHIHWVRQAPGQGLEWMGVINPMYGTTDYNQRFKGRVTITADESTSTAYMELSSLRSEDTAVYYCARYDYFTGTGVYWGQGTLVTVSS
VL: DIVMTQTPLSLSVTPGQPASISCRSSRSLVHSRGNTYLHWYLQKPGQSPQLLIYKVSNRFIGVPDRFSGSGSGTDFTLKISRVEAEDVGVYYCSQSTHLPFTFGQGTKLEIKR
notes: Made in-house in 293F cells from the synthesised variable regions cloned into hIgG4 and hIgKc vectors; purified on Protein A; also called 阳性对照抗体Ixekizumab; 阳性抗体
B1: in assay [1], the EC50 was found to be 10.1 µg/mL. Besides, the “IC50, luciferase activity of 293F-IL-17RA-IL-17Rc-ACT1-NFκB-Luc reporter cells stimulated with 0.1 μg/mL IL-17A” value in assay [2] is 2.23 nM. The Kd in assay [3] worked out at 0.391 nM.
